# Where no end group is shown, it is not given here.
# T1: Glucagon receptor (rat), P30082
# T1 chain: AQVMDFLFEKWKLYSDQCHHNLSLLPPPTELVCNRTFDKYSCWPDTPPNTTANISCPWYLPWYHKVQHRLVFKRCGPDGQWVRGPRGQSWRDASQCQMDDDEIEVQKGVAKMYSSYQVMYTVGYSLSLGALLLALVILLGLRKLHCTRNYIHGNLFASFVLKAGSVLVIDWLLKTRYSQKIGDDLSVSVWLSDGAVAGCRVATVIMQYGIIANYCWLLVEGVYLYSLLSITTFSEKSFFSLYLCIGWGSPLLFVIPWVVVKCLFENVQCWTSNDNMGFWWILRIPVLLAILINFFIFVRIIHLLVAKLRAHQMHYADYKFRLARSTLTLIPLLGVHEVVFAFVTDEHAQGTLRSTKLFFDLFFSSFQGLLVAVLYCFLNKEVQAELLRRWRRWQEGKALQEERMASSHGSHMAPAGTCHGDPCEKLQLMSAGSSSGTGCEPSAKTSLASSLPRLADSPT
# T2: GLP-1 receptor (rat), P32301
# T2 chain: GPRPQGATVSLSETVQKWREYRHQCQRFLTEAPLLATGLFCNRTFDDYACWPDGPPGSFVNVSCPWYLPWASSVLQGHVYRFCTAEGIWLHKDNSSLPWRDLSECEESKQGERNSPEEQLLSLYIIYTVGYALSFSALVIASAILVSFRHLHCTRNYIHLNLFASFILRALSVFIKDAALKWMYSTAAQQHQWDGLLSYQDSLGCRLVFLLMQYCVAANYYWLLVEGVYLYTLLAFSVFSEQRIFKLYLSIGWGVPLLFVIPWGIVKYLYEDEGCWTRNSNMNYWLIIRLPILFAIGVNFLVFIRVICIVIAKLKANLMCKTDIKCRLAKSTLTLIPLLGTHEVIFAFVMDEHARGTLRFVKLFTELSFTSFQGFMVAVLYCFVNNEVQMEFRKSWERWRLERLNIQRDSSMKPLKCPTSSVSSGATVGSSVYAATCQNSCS
# T3: GLP-1 receptor (rat, UniProt P32301)
# T3 chain: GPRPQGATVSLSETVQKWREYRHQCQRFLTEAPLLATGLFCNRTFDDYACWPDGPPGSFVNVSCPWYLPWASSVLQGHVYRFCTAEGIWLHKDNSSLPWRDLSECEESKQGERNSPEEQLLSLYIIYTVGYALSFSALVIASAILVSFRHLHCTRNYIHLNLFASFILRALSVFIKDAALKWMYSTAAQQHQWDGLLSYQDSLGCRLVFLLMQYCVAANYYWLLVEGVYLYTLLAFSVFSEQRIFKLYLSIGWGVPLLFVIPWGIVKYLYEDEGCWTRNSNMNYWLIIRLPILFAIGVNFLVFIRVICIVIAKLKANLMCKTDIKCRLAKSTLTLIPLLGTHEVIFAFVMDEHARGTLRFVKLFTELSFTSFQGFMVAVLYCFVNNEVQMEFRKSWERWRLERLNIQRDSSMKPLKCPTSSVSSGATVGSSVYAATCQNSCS
# T4: Glucagon receptor (rat, UniProt P30082)
# T4 chain: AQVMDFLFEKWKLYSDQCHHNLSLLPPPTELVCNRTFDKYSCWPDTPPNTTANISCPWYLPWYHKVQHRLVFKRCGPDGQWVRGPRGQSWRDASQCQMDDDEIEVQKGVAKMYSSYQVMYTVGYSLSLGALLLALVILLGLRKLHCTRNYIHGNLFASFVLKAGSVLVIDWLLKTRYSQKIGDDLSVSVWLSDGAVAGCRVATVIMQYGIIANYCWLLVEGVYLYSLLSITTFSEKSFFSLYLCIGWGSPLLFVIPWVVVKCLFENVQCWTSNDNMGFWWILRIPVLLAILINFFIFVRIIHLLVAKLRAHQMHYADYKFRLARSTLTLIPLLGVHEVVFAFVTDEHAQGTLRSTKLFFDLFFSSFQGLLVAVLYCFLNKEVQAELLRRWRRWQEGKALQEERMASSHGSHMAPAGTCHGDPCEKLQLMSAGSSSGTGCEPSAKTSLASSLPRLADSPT
# Key:
# Experiment in all cases: competition
# [1] = target: T1, Glucagon receptor (rat), P30082; conditions: modification not given
# [2] = target: T2, GLP-1 receptor (rat), P32301; conditions: modification not given
# GLP-1 receptor = target: T3, GLP-1 receptor
# Glucagon receptor = target: T4, Glucagon receptor
Binder,IC50 [1] [nM],IC50 [2] [nM],IC50 (GLP-1 receptor) [nM],IC50 (Glucagon receptor) [nM]
HSQGTFTSDYSKYLDSRRAQDFVQWLVKGR [G1],6.6,6,–,–
HSQGTFTSDYARYLDARRAREFIKWLVRGRC(PEG 22 kD) [G2185],–,–,56.1,347
HSQGTFTSDYAKYLDAARAKEFIAWLVKGR [G57],178,14.7,–,–
HSQGTFTSDYARYLDARRAREFIKWLVRGRG [G90],726,25.4,–,–
HSQGTFTSDYARYLDARRAREFIKWLVRGRC [G185],48,4.5,–,–
HSQGTFTSDYARYLDAAKAKEFIAWLVKGRG [G61],232,10.6,–,–
HSQGTFTSDYARYLDARRAREFIAWLVRGRGK [G85],16.1,1.5,–,–
HSQGTFTSDYARYLDARRAKEFIAWLVRGRG [G82],33.6,8.1,–,–
HSQGTFTSDYAKYLDARRAKEFIAWLVKGRG [G51],154,8.2,–,–
HSQGTFTSDYAKYLDAAKAKEFIAWLVKGRG [G60],682,13.8,–,–
HSQGTFTSDYAKYLDARRAKEFIAWLVKGCG [G76],59.1,10.2,–,–
HSQGTFTSDYAKYLDARRAKEFIAWLVKGRK [G88],350,109,–,–
HSQGTFTSDYAKYLDARRAKEFIAWLVKCRG [G75],54,7.7,–,–
HSQGTFTSDYAKYLDARRAKEFIAWLVKGR [G87],620,98.6,–,–

# Next, values leading:
IC50 [1] [nM],IC50 [2] [nM],IC50 (GLP-1 receptor) [nM],IC50 (Glucagon receptor) [nM],Binder
243,0.5,–,–,HSQGTFTSDYSKYLEGQAAKEFIAWLVKGR [G5]
125,6.6,–,–,HSQGTFTSDYAAYLDARRAKEFIAWLVKGR [G56]
–,–,248,547,HSQGTFTSDYARYLDARRAREFIKWLVRGRC(PEG 43 kD) [G4185]
28.6,3.2,–,–,HSQGTFTSDYARYLDARRAREFIKWLVRGRG [G83]
663,159,–,–,HSQGTFTSDYARYLDARRAKEFIKWLVRGRG [G183]
69.3,2.2,–,–,HSQGTFTSDYAKYLDARRAKEFIAWLVKGR [G27]
97.5,2.1,–,–,HSQGTFTSDYARYLDAKKAKEFIAWLVKGRG [G59]
220,12.6,–,–,HSQGTFTSDYARYLDARRAREFIKWLVRGRGK [G182]
–,–,–,65.5,HSQGTFTSDYAKYLDARRAKEFIAWLVKGRC(PEG 22 kD) [G277]
25.6,5.8,–,–,HSQGTFTSDYAKYLDARRACEFIAWLVKGRG [G71]
164,6.9,–,–,HSQGTFTSDYAKYLDAKKAKEFIAWLVKGRG [G58]
11.7,1.4,–,–,HSQGTFTSDYARYLDARRAREFIAWLVKGRG [G84]
21.7,4.4,–,–,HSQGTFTSDYAKYLDARRAKEFIAWLVCGRG [G74]
61.1,8.9,–,–,HSQGTFTSDYAKYLDARRAKEFIAWLVKGRC [G77]
139,9.8,–,–,HSQGTFTSDYARYLDARRAKEFIAWLVKGR [G55]
